In article PMC3408606 (Thrombosis and haemostasis, 2011):

Test system: platelets
Assay: Platelet aggregation
Assay type: cell-based, human

B1: ApoD: plasma lipocalin constituent of HDL, recombinant 6xHis, expressed in HEK293 cells (protein, UniProt P05090 21-189, looked up)
Apolipoprotein D: QAFHLGKCPNPPVQENFDVNKYLGRWYEIEKIPTTFENGRCIQANYSLMENGKIKVLNQELRADGTVNQIEGEATPVNLTEPAKLEVKFSWFMPSAPYWILATDYENYALVYSCTCIIQLFHVDFAWILARNPNLPPETVDSLKNILTSNNIDVKKMTVTDQVNCPKLS
modifications: 6xHis tag
did not inhibit: Inhibition of AA-induced platelet aggregation (low doses of AA, ApoD expressed in HEK293 cells) | Inhibition of U46619-induced platelet aggregation (low doses of U46619, ApoD expressed in HEK293 cells) | Inhibition of collagen-induced platelet aggregation (low doses of collagen, ApoD expressed in HEK293 cells)
